Experimental data reported in the supplement of paper PMC11780869.

Tested on: Bacillus subtilis
Assay: cleaved RNA product abundance (RNA/gDNA barcode ratio) relative to median wild-type variant (ratio to wild type); higher = more accumulation of the downstream cleavage product
In short: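 Reporter mRNAs (truncated aprE or tetM) carrying barcoded, mutagenized RNase Y cleavage-site windows were made from oligos with a 9% error rate and integrated into the B. subtilis chromosome. Cultures grew in LB at 37°C from OD600 0.0003 to 0.3. Cleaved RNA was gel-selected, reverse transcribed and barcode-sequenced alongside genomic DNA barcodes, with UMI collapsing. Cleaved product abundance is the RNA:gDNA barcode ratio per variant, scaled to the median wild-type variant.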

[1] = experiment (reporter, strain, medium): exp 8a: truncated aprE reporter, strain BJT201 with 2% xylose (RNase J1 expressed), cleavage site: glnRA (positions -5 to +31 mutated)
[2] = experiment (reporter, strain, medium): exp 4a: truncated aprE reporter, strain BJT201 with 2% xylose (RNase J1 expressed), cleavage site: cggR-gapA (positions -7 to +36 mutated)
[3] = experiment (reporter, strain, medium): exp 2b: truncated aprE reporter, strain BJT200, cleavage site: cggR-gapA (positions -7 to +36 mutated)

Row | Sequence | cleaved RNA product abundance [1] | cleaved RNA product abundance [2] | other results
1 | CGACATGTCCCGCTTCTTTCATTAATCCTTTAGCCACTGTTTTGCTATATACATTTACCTTTTAAGAGGAGGAAT | 0.253 |  | 
2 | ACAGACGAAGGAGCCGCAAAGAAGATATTAAGGGAAGAATAATCCCTCAATATAAATATCTCTCACTTATTTAAA |  | 1 | 
3 | ACAGACGAAGGAGCCGCAAAGAAGTTATTAAGGGTTTAATAATCCCTCAATATAAATATCTCTCACTTATTTAAA |  | 0.667 | cleaved RNA product abundance [3]: 0.63
4 | ACAGACGAAGGAGCCGCACAGATGTTATTAAGGGATGAATAATCCCTCAATATAAATATCTCTCACTTATTTAAA |  | 1.11 | 
5 | ACAGACGAAGGAGCCGCAAACAAGTTATTAAGGGATGAATAATCCCTCAAGATAAATATCTCTCACTTATTTAAA |  |  | cleaved RNA product abundance [3]: 0.17
6 | CGACATGTCCCGCTTCTTTCATTAATCCGTTAGTAACTGTTTTGCAATATACATTTACCTTTTAAGAGGAGGAAT | 0.316 |  | 
7 | ACAGACGAAGGAGCCGCAAAGAAGTTATTAAGGGATGAATATTGCCTCAATATAAATATCTCTCACTTATTTAAA |  | 0.107 | 
8 | ACAGACGAAGGAGCCGCAAAGAAGTTATTAAGGGAAGAATAATCCCTCAATATAAATATCTCTCACTTATTTAAA |  | 0.633 | cleaved RNA product abundance [3]: 0.485; cleaved RNA product abundance (experiment (reporter, strain, medium): exp 6: tetM reporter, strain 168, cleavage site: cggR-gapA (positions -7 to +36 mutated)): 0.691
9 | ACAGACGAAGGAGCCGCAAAGAAGCTATAAAGGGATGAATAATCCCTCAATATAAATATCTCTCACTTATTTAAA |  | 0.357 | cleaved RNA product abundance [3]: 0.272
10 | CGACATGTCCCGCTTCTTTCATTAATCCGTAAGCAACTGTTTTGCTATATACATATACCTTTTAAGAGGAGGAAT | 0.551 |  | 
11 | CGACATGTCCCGCTTCTTTCATTAATCCGTTAACAACTGTTTTGCTATATACATTTACCATTTAAGAGGAGGAAT | 0.176 |  | 
12 | ACAGACGAAGGAGCCGCAAAGAACTTATTAAGGGATGAATAATCCCTCCATATAAATATCTCTCACTTATTTAAA |  | 0.28 | 
13 | CGACATGTCCCGCTTCTTTCATTAATCCGTTAGCAATTGTTTTGCTATATACATTTGCCTTTTAAGAGGAGGAAT | 0.188 |  | 
14 | CGACATGTCCCGCTTCTTTCATTAATCCGTTAGAAACTGTTTTGCTATATACATCTACCTTTTAAGAGGAGGAAT | 0.228 |  | 
15 | CGACATGTCCCGCTTCTTTCATTAATCCGTTATCAACAGTTTTGCTATATACATTTACCTTTTAAGAGGAGGAAT | 0.296 |  | 
16 | ACAGACGAAGGAGCCGCAAAGAAGTTATTAGGGCATGAATAATCCCTCAATATAAATATCTCTCACTTATTTAAA |  | 0.132 | 
17 | ACAGACGAAGGAGCCGCAAAGAAGTTATTAAGGGTTGAATGATCCCTCAATATAAATATCTCTCACTTATTTAAA |  |  | cleaved RNA product abundance [3]: 0.298
18 | CGACATGTCCCGCTTCTTTCATTAATCCGTTAGCAACTGTGTTTCTATATACATTTAACTTTTAAGAGGAGGAAT | 0.453 |  | 
19 | CGACATGTCCCGCTTCTTTCATTAATCCGTTAGCGACTGTTTAGCTATATACATTTACCTTTTAAGAGGAGGAAT | 0.681 |  | 
20 | CGACATGTCCCGCTTCTTTCATTAATCCGTTAGCAACTGTTTTTGTATATACATTTACCTTTTAAGAGGAGGAAT | 0.494 |  | 
21 | CGACATGTCCCGCTTCTTTCATTAATTCGTTAGCAACTGTTTTGCTATCTACATTTACCTTTTAAGAGGAGGAAT | 0.0856 |  | 
22 | ACAGACGAAGGAGCCGCAAAGAGGTTATTAAGAGATGAATAATCCCTCAATATAAATATCTCTCACTTATTTAAA |  | 0.126 | 

Row | Sequence | cleaved RNA product abundance [1] | cleaved RNA product abundance [2] | other results
23 | CGACATGTCCCGCTTCTTTCATTAATCCGTTAGCAACTGTTTTACTATATACAATTACCTTTTAAGAGGAGGAAT | 0.613 |  | 
24 | ACAGACGAAGGAGCCGCAAAGAAGTTCTTAAGGGATGAATAATCCCTCAATTTAAATATCTCTCACTTATTTAAA |  | 0.0838 | 
25 | CGACATGTCCCGCTTCTTTCATTAATCCGTTAGCAACTGTTTAGCTATATACATTTATCTTTTAAGAGGAGGAAT | 0.572 |  | 
26 | ACAGACGAAGGAGCCGCAAAGAAGTTCTTAAGGGATCAATAATCCCTCAATATAAATATCTCTCACTTATTTAAA |  | 0.205 | 
27 | CGACATGTCCCGCTTCTTTCATTACTCCGTTAGCAACTGTTTTGCTATATACATTGACCTTTTAAGAGGAGGAAT | 1.16 |  | 
28 | ACAGACGAAGGAGCCGCAAAGAAATTATTAAGGGATGAATAATCCCTAAATATAAATATCTCTCACTTATTTAAA |  | 0.667 | cleaved RNA product abundance [3]: 0.458
29 | CGACATGTCCCGCTTCTTTCATTAATCCGTAAACAACTGTTTTGCTATATACATTTACCTTTTAAGAGGAGGAAT | 0.159 |  | 
30 | ACAGACGAAGGAGCCGCAAAGAAGTTATTAGGGGATGAATAATACCTCAATATAAATATCTCTCACTTATTTAAA |  | 0.211 | 
31 | ACAGACGAAGGAGCCGCAAAGAATTTATTAAGGGATGAATCATCCCTCAATATAAATATCTCTCACTTATTTAAA |  | 0.545 | 
32 | CGACATGTCCCGCTTCTTTCATTACTCCGTTAGCAACAGTTATGCTATATACATTTACCTTTTAAGAGGAGGAAT | 0.735 |  | 
33 | CGACATGTCCCGCTTCTTTCATTAATCCGTTAGCAACTGTTTTGCTGTATACATTTACCTTTTAAGAGGAGGAAT | 0.219 |  | 
34 | ACAGACGAAGGAGCCGCAAAGAAGTTATTAAGGGATCAATAATCCCACAATATAAATATCTCTCACTTATTTAAA |  | 0.208 | cleaved RNA product abundance [3]: 0.192
35 | CGACATGTCCCGCTTCTTTCATTACTCCGTTAGCAACTGTTTTGCTATATACAATTACCTTTTAAGAGGAGGAAT | 1.14 |  | 
36 | ACAGACGAAGGAGCCGCAAATAAGTTATTAAGGGATGAATAATCCCTCAATATAGATATCTCTCACTTATTTAAA |  | 0.649 | cleaved RNA product abundance [3]: 0.715
37 | CGACATGTCCCGCTTCTTTCATTAAACCGTTAGCAACTGTTTTGCGATATACATTTACCTTTTAAGAGGAGGAAT | 0.352 |  | 
38 | ACAGACGAAGGAGCCGCACATAAGTTATTAAGGGATGAATAATCCCTCAATATAAATATCTCTCACTTATTTAAA |  | 1.07 | cleaved RNA product abundance [3]: 0.732
39 | ACAGACGAAGGAGCCGCAAAGAAGTTATTAAGGGATAAAGAATCCCTCAATATAAATATCTCTCACTTATTTAAA |  | 0.629 | 
40 | ACAGACGAAGGAGCCGCGAAGAAGTTATTAAGGGATGAATAATCTCTCAATATAAATATCTCTCACTTATTTAAA |  | 0.671 | 
41 | ACAGACGAAGGAGCCGCAAAGAAGTTATTAAGGGATGAATAATCCCTCTATGTAAATATCTCTCACTTATTTAAA |  | 0.0964 | cleaved RNA product abundance [3]: 0.16
42 | CGACATGTCCCGCTTCTTTCATTAATCCGTTAGCAACTATTTTGATATATACATTTACCTTTTAAGAGGAGGAAT | 0.503 |  | 
43 | ACAGACGAAGGAGCCGCAAAGAAGTTATTAAGGAATGAATAATCCCTCAATATAAATATTTCTCACTTATTTAAA |  | 0.136 | 
